Assay [1] deals with human CD16A-158F ECD fused to monomeric Fc (human) (UniProt P08637). Description: SPR, Biacore T200, receptor captured, 1:1 model.
Assay [2] concerns the target human CD16A-158V ECD fused to monomeric Fc (human) (UniProt P08637). Briefly: SPR, Biacore T200, receptor captured, 1:1 model. On the technique in general: SPR reads the build-up and loss of mass on a sensor chip optically.

A word on the Kd: it is the constant that tells how readily two partners part at equilibrium. What is called koff is the rate constant with which the complex falls apart. A higher koff goes with fast dissociation. One may read the kon as the rate constant with which the complex forms.

Sequence of human CD16A-158V ECD fused to monomeric Fc (human) (P08637 17-208 F176V): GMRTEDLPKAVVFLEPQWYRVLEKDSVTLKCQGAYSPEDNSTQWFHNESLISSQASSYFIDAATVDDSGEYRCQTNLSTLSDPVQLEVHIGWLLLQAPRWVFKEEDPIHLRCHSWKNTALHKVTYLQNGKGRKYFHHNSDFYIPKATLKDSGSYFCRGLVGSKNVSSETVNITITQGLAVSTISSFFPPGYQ
Sequence of human CD16A-158F ECD fused to monomeric Fc (human) (P08637 17-208): as the sequence (P08637 17-208 F176V) above, with V160F counted along it

“human IgG1 (IgG1 Fc wildtype) (antibody)”: in assay [1], the Kd was 2720 nM, the koff came to 0.0675 s⁻¹ and the on-rate (kon) was 24800 M⁻¹ s⁻¹. In assay [2], this substance registered a Kd of 424 nM, a dissociation rate constant (koff) of 0.00995 s⁻¹ and a kon of 23500 M⁻¹ s⁻¹.
In assay [1], “human IgG1 Fc-silenced (L234F/L235E/D265A) (antibody)” came in with a Kd of 34700 nM, a koff of 0.71 s⁻¹ and a kon of 20400 M⁻¹ s⁻¹.
As for “human IgG1 Fc-enhanced (S239D/I332E) (antibody)”, in assay [2], the Kd turned out to be 13.5 nM, the koff is 0.00639 s⁻¹ and the kon stood at 474000 M⁻¹ s⁻¹.

For the origin of these results see patent US20200109202A1.
